Results from US20220119825A1, “SCALABLE PEPTIDE-GPCR INT[…] SYSTEMS” (THE TRUSTEES OF COLUMBIA UNIVERSITY IN THE CITY OF NEW YORK, priority 2019, published 2022).

What was measured:
Assay in all cases: cell-based or functional assay
[1] = biological target: T1, Vp2.Ste2, Ste2-like mating GPCR of Vanderwaltozyma polyspora2 (Vanderwaltozyma polyspora)
T1 chain: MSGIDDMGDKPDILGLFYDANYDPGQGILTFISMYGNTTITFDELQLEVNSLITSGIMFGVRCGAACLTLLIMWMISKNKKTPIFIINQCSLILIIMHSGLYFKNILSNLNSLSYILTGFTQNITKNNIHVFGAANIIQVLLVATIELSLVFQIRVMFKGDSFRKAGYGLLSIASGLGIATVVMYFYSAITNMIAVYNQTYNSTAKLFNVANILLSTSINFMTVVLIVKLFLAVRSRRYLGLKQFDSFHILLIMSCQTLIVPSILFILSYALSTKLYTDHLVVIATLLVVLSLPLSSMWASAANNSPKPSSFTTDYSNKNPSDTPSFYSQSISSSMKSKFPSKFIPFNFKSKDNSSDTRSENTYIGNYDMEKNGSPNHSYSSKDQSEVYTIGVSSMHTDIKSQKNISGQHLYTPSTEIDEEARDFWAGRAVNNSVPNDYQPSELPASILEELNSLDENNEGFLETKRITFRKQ

[2] = biological target: T2, Zb.Ste2, Ste2-like mating GPCR of Zygosaccharomyces bailii (Zygosaccharomyces bailii)
T2 chain: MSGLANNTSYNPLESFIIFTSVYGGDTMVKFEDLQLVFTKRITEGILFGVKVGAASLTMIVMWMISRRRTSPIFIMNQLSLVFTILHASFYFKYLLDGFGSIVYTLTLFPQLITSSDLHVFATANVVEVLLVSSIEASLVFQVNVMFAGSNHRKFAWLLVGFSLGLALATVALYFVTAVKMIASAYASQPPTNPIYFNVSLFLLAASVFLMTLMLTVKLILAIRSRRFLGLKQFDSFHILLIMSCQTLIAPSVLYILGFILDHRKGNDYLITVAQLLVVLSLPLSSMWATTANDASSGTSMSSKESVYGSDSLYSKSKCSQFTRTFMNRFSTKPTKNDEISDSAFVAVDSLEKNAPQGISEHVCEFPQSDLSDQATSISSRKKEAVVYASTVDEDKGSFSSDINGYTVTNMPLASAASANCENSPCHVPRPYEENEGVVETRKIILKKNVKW

[3] = biological target: T3, Zr.Ste2, Ste2-like mating GPCR of Zygosaccharomyces rouxii (Zygosaccharomyces rouxii)
T3 chain: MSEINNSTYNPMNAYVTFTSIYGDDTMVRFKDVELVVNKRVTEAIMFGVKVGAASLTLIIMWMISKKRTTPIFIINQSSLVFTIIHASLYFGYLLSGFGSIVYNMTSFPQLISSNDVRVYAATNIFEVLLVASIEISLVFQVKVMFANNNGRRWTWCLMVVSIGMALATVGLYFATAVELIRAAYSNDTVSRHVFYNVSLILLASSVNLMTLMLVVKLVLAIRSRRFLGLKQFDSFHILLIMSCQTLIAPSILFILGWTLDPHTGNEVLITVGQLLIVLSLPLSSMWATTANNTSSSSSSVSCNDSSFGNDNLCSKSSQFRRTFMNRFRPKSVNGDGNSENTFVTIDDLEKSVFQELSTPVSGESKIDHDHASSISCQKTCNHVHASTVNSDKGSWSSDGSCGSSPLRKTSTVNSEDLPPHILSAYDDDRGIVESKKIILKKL

[4] = biological target: T4, Ca.Ste2, Ste2-like mating GPCR of Candida albicans (Candida albicans)
T4 chain: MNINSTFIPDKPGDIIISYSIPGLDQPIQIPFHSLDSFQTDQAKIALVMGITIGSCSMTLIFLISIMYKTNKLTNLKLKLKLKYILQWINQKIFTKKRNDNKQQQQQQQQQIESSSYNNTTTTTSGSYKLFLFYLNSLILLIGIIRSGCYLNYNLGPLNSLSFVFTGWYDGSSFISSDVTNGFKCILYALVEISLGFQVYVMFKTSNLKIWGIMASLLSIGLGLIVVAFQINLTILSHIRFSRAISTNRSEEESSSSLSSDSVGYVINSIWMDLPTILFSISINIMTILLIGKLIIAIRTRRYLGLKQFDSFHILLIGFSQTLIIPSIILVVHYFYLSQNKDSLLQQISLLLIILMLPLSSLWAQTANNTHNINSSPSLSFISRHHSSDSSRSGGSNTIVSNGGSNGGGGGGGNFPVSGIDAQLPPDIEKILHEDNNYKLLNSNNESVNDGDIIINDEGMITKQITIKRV

[5] = biological target: T5, Cau.Ste2, Ste2-like mating GPCR of Candida auris (Candida auris)
T5 chain: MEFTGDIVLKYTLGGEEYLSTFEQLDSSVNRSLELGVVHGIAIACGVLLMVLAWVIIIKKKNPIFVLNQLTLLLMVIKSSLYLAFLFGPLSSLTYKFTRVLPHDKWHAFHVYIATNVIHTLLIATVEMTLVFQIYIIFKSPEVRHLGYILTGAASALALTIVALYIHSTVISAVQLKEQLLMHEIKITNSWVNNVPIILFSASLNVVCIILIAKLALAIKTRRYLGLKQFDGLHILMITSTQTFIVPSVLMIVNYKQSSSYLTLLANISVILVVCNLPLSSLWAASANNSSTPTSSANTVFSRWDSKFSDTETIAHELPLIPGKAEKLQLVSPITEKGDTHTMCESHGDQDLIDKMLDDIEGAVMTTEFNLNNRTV

B1: Vp2 peptide ligand #1 WHWLRLRYGEPIY (peptide)
peptide: WHWLRLRYGEPIY
- Bttm (FUS1p-RFP reporter) [1]: 28 fluorescence/A600 (not printed)
- EC50 (FUS1p-RFP reporter) [1]: -7.7 log10 M (not printed)
- Fold Change (FUS1p-RFP reporter) [1]: 7.7 fold
- Span (FUS1p-RFP reporter) [1]: 187 fluorescence/A600 (not printed)
- Top (FUS1p-RFP reporter) [1]: 215 fluorescence/A600 (not printed)

B2: Zb peptide ligand #1 HLVRLSPGAAMF (peptide)
peptide: HLVRLSPGAAMF
- Bttm (FUS1p-RFP reporter) [2]: 39.1 fluorescence/A600 (not printed)
- EC50 (FUS1p-RFP reporter) [2]: -5.8 log10 M (not printed)
- Fold Change (FUS1p-RFP reporter) [2]: 7.5 fold
- Span (FUS1p-RFP reporter) [2]: 253 fluorescence/A600 (not printed)
- Top (FUS1p-RFP reporter) [2]: 292 fluorescence/A600 (not printed)

B3: Zr peptide ligand #1 (Table 3: …) (peptide)
peptide: HFIELDPGQPMF
- Bttm (FUS1p-RFP reporter) [3]: 57.2 fluorescence/A600 (not printed)
- EC50 (FUS1p-RFP reporter) [3]: -7.4 log10 M (not printed)
- Fold Change (FUS1p-RFP reporter) [3]: 1.9 fold
- Span (FUS1p-RFP reporter) [3]: 52.7 fluorescence/A600 (not printed)
- Top (FUS1p-RFP reporter) [3]: 110 fluorescence/A600 (not printed)

B4: Ca peptide ligand #1 GFRLTNFGYFEPG (peptide)
peptide: GFRLTNFGYFEPG
- Bttm (FUS1p-RFP reporter) [4]: 38.9 fluorescence/A600 (not printed)
- EC50 (FUS1p-RFP reporter) [4]: -7.7 log10 M (not printed)
- Fold Change (FUS1p-RFP reporter) [4]: 7 fold
- Span (FUS1p-RFP reporter) [4]: 233 fluorescence/A600 (not printed)
- Top (FUS1p-RFP reporter) [4]: 272 fluorescence/A600 (not printed)

B5: Cau peptide ligand #1 KWGWLRFFPGEPFV (peptide)
peptide: KWGWLRFFPGEPFV
- Bttm (FUS1p-RFP reporter) [5]: 50.6 fluorescence/A600 (not printed)
- EC50 (FUS1p-RFP reporter) [5]: -8.1 log10 M (not printed)
- Fold Change (FUS1p-RFP reporter) [5]: 6.7 fold
- Span (FUS1p-RFP reporter) [5]: 286 fluorescence/A600 (not printed)
- Top (FUS1p-RFP reporter) [5]: 337 fluorescence/A600 (not printed)
